In patent US5837516A, “Subtilisin variants capable of cleaving substrates containing basic residues” (Genentech, Inc., priority 1995, dated 1998):

What was measured:
[1] = target: T1, succinyl-Ala-Ala-Pro-Lys-pNa
T1 sequence (peptide, N-terminal succinyl; C-terminal p-nitroanilide (pNA)): AAPK

[2] = target: T2, succinyl-Ala-Ala-Lys-Lys-pNa
T2 sequence (peptide, N-terminal succinyl; C-terminal p-nitroanilide (pNA)): AAKK

[3] = target: hGH-AP fusion protein with substrate linker Asn-Leu-Met-Arg-Lys (E. coli); settings: scale: times faster than the Thr-Ala-Ser-Arg-Arg and Asn-Leu-Thr-Ala-Arg fusions
succinyl-AAKR-pNA = target: T3, succinyl-AAKR-pNA
T3 sequence (peptide, N-terminal succinyl; C-terminal p-nitroanilide (pNA)): AAKR

succinyl-AAPF-pNA = target: T4, succinyl-AAPF-pNA
T4 sequence (peptide, N-terminal succinyl; C-terminal p-nitroanilide (pNA)): AAPF

[4] = substrate: C[C@H](NC(=O)CCC(=O)O)C(=O)N[C@@H](C)C(=O)N1CCC[C@H]1C(=O)N[C@@H](Cc1ccccc1)C(=O)Nc1ccc([N+](=O)[O-])cc1; test: Kinetic analysis, hydrolysis of succinyl-tetrapeptide-pNA substrates; format: biochemical, Bacillus amyloliquefaciens; settings: other: N62D/G166D, 20 mM Tris-Cl pH 8.2, 4% DMSO, 25 C
Procedure: (§1) The mature N62D/Y104D/G166D variant was purified and analyzed for its ability to hydrolyze several tetrapeptide-pNA substrates.
(§2) Kinetic analysis of WT, N62D/G166D, and N62D/Y104D/G166D subtilisin BPN'
(§3) Subtilisins were assayed by measuring the initial rates of hydrolysis of p-nitroanilide tetrapeptide substrates in 0.4 mL 20 mM Tris-Cl pH 8.2, 4% (v/v) dimethyl sulfoxide at (25±0.2)° C. as described previously (Estell, D. A., Graycar, T. P., Miller, J. V., Powers, D. B., Burnier, J. P., Ng, P. G. and Wells, J. A. (1986)Science 233:659-663). Enzyme concentrations (E)0 were determined spectrophotometrically using E280 nm 0.1%=1.17 (Matsubara, H.; Kasper, C B.; Brown, D. M.; and Smith, E. L. (1965)J. Biol. Chem.,240:1125-1130.), and were typically 5-50 nM in reactions. Initial rates were determined for nine to twelve different substrate concentrations over the range of 0.001-2.0 mM. Plots of initial rates (v) versus substrate concentration (S) were fitted to the Michaelis-Menton equation, [formula] to determine the kinetic constants kcat and Km (Fersht, A. in "Enzyme Structure and Mechanism", Second edition, Freeman and Co., N.Y.) using the program Kaleidagraph (Synergy Software, Reading, Pa.).

[5] = substrate: C[C@H](NC(=O)CCC(=O)O)C(=O)N[C@@H](C)C(=O)N[C@@H](CCCCN)C(=O)N[C@@H](CCCNC(=N)N)C(=O)Nc1ccc([N+](=O)[O-])cc1; test: as above; format: biochemical, Bacillus amyloliquefaciens; settings: 20 mM Tris-Cl pH 8.2, 4% DMSO, 25 C
Procedure: as §1, §2, §3

succinyl-RAKR-pNA = target: T5, succinyl-RAKR-pNA
T5 sequence (peptide, N-terminal succinyl; C-terminal p-nitroanilide (pNA)): RAKR

succinyl-KAKR-pNA = target: T6, succinyl-KAKR-pNA
T6 sequence (peptide, N-terminal succinyl; C-terminal p-nitroanilide (pNA)): KAKR

[6] = substrate: C[C@H](NC(=O)[C@H](CCCNC(=N)N)NC(=O)CCC(=O)O)C(=O)N[C@@H](CCCCN)C(=O)N[C@@H](CCCNC(=N)N)C(=O)Nc1ccc([N+](=O)[O-])cc1; test: Kinetic analysis, hydrolysis of succinyl-tetrapeptide-pNA substrates; format: biochemical, Bacillus amyloliquefaciens; settings: other: N62D/Y104D/G166D, 20 mM Tris-Cl pH 8.2, 4% DMSO, 25 C
Procedure: as §1, §2, §3

[7] = substrate: C[C@H](NC(=O)[C@H](CCCCN)NC(=O)CCC(=O)O)C(=O)N[C@@H](CCCCN)C(=O)N[C@@H](CCCNC(=N)N)C(=O)Nc1ccc([N+](=O)[O-])cc1; test: as above; format: biochemical, Bacillus amyloliquefaciens; settings: other: N62D/Y104D/G166D, 20 mM Tris-Cl pH 8.2, 4% DMSO, 25 C
Procedure: as §1, §2, §3

B1: subtilisin BPN' variant G166D (enzyme)
chain: AQSVPYGVSQIKAPALHSQGYTGSNVKVAVIDSGIDSSHPDLKVAGGASMVPSETNPFQDNNSHGTHVAGTVAALNNSIGVLGVAPSASLYAVKVLGADGSGQYSWIINGIEWAIANNMDVINMSLGGPSGSAALKAAVDKAVASGVVVVAAAGNEGTSGSSSTVDYPGKYPSVIAVGAVDSSNQRASFSSVGPELDVMAPGVSIQSTLPGNKYGAYNGTSMASPHVAGAAALILSKHPNWTNTQVRSSLENTTTKLGDSFYYGKGLINVQAAAQ
ratio of catalytic efficiencies, hydrolysis of succinyl-tetrapeptide-pNA (times faster than the Phe P1 substrate) [1]: 3

B2: subtilisin BPN' variant N62D/G166E (enzyme)
chain: AQSVPYGVSQIKAPALHSQGYTGSNVKVAVIDSGIDSSHPDLKVAGGASMVPSETNPFQDNDSHGTHVAGTVAALNNSIGVLGVAPSASLYAVKVLGADGSGQYSWIINGIEWAIANNMDVINMSLGGPSGSAALKAAVDKAVASGVVVVAAAGNEGTSGSSSTVEYPGKYPSVIAVGAVDSSNQRASFSSVGPELDVMAPGVSIQSTLPGNKYGAYNGTSMASPHVAGAAALILSKHPNWTNTQVRSSLENTTTKLGDSFYYGKGLINVQAAAQ
ratio of catalytic efficiencies, hydrolysis of succinyl-tetrapeptide-pNA (times faster than the Lys-Phe substrate) [2]: 8

B3: subtilisin BPN' variant N62D/G166D (mature enzyme SEQ ID NO: 72) (Bacillus amyloliquefaciens; G273D/N169D) (protein)
chain: AQSVPYGVSQIKAPALHSQGYTGSNVKVAVIDSGIDSSHPDLKVAGGASMVPSETNPFQDNDSHGTHVAGTVAALNNSIGVLGVAPSASLYAVKVLGADGSGQYSWIINGIEWAIANNMDVINMSLGGPSGSAALKAAVDKAVASGVVVVAAAGNEGTSGSSSTVDYPGKYPSVIAVGAVDSSNQRASFSSVGPELDVMAPGVSIQSTLPGNKYGAYNGTSMASPHVAGAAALILSKHPNWTNTQVRSSLENTTTKLGDSFYYGKGLINVQAAAQ
notes: made in house; host or cells: Bacillus subtilis BG2036 (protease-deficient), secreted
ratio of catalytic efficiencies, hydrolysis of succinyl-tetrapeptide-pNA (times faster than a Lys-Phe substrate) [2]: 18
rate of cleavage of the fusion protein from the hGH receptor plate (released AP activity) [3]: 10
kcat/Km, hydrolysis of succinyl-tetrapeptide-pNA (succinyl-AAKR-pNA): 370000 M⁻¹ s⁻¹
kcat/Km, hydrolysis of succinyl-tetrapeptide-pNA (succinyl-AAPF-pNA): 1900 M⁻¹ s⁻¹
Km [4]: 1800 µM
kcat [4]: 3.4 s⁻¹
kcat/Km [4]: 1900 M⁻¹ s⁻¹
Km ([5]; other: N62D/G166D): 41 µM
kcat ([5]; other: N62D/G166D): 15 s⁻¹
kcat/Km ([5]; other: N62D/G166D): 370000 M⁻¹ s⁻¹

B4: subtilisin BPN' variant N62D/Y104D/G166D (SEQ ID NO: 75) (Bacillus amyloliquefaciens; G273D/N169D/Y211D) (protein)
chain: AQSVPYGVSQIKAPALHSQGYTGSNVKVAVIDSGIDSSHPDLKVAGGASMVPSETNPFQDNDSHGTHVAGTVAALNNSIGVLGVAPSASLYAVKVLGADGSGQDSWIINGIEWAIANNMDVINMSLGGPSGSAALKAAVDKAVASGVVVVAAAGNEGTSGSSSTVDYPGKYPSVIAVGAVDSSNQRASFSSVGPELDVMAPGVSIQSTLPGNKYGAYNGTSMASPHVAGAAALILSKHPNWTNTQVRSSLENTTTKLGDSFYYGKGLINVQAAAQ
notes: the mature enzyme +1 to +275; made in house; host or cells: Bacillus subtilis BG2036 (protease-deficient), secreted
kcat/Km, hydrolysis of succinyl-tetrapeptide-pNA (succinyl-RAKR-pNA): 490000 M⁻¹ s⁻¹
kcat/Km, hydrolysis of succinyl-tetrapeptide-pNA (succinyl-AAKR-pNA): 8100 M⁻¹ s⁻¹
kcat/Km, hydrolysis of succinyl-tetrapeptide-pNA (succinyl-AAPF-pNA): 8 M⁻¹ s⁻¹
kcat/Km, hydrolysis of succinyl-tetrapeptide-pNA (succinyl-KAKR-pNA): 340000 M⁻¹ s⁻¹
Km [6]: 23 µM
kcat [6]: 11 s⁻¹
kcat/Km [6]: 490000 M⁻¹ s⁻¹
Km ([5]; other: N62D/Y104D/G166D): 34 µM
kcat ([5]; other: N62D/Y104D/G166D): 0.27 s⁻¹
kcat/Km ([5]; other: N62D/Y104D/G166D): 8100 M⁻¹ s⁻¹
Km [7]: 29 µM
kcat [7]: 9.8 s⁻¹
kcat/Km [7]: 340000 M⁻¹ s⁻¹
